Results on 18 molecules are retold here after publication PMC5857972 (2018).

For test [1], the target named is Pertuzumab Vκ1|VH3 whole IgG1 (original pairing). The experiment in a line: BLI; Octet QKe; antibody captured by its Fc on Anti-Human Fc Capture (AHC) biosensor, Her2 in solution; KD calculated from Kon and Koff by the Octet software; triplicates.
The target in test [2] is extracellular portion of the human FcγIIA (human) (UniProt P12318). The experiment in a line: BLI.
The target of test [3] is T1, extracellular portion of the human FcγIIA (human, UniProt P12318-1 34-215).
T1 chain: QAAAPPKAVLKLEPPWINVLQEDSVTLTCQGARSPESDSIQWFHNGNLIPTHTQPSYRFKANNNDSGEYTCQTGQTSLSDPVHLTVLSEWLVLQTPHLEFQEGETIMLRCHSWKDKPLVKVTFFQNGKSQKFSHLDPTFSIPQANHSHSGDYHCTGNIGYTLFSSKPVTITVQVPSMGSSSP
The experiment in a line: BLI.

Test [4] concerns the target T1, extracellular portion of the human …. In words: BLI.

Regarding “Her2 (from UniProt P04626 23-1255) (natural protein)”, the Kd in test [1] was 0.87 nM. The molecule “Pertuzumab Vκ1|VH2 whole IgG1 variant (from UniProt P01857)” returned a Kd in test [2] of 4.74 nM. “Pertuzumab Vκ2|VH2 whole IgG1 variant (from UniProt P01857)”: in test [2], the Kd is 4.99 nM.

On to “Pertuzumab Vκ2|VH6 whole IgG1 variant (from UniProt P01857)”, for which the Kd in test [2] is 3.94 nM.

In the case of “Pertuzumab Vκ3|VH1 whole IgG1 variant (from UniProt P01857)”, the Kd in test [2] came to 11.5 nM. Same read-out and setting: with “Pertuzumab Vκ3|VH3 whole IgG1 variant (from UniProt P01857)” the figure was 23.7 nM. On to “Pertuzumab Vκ4|VH1 whole IgG1 variant (from UniProt P01857)”, for which, in test [2], the Kd came to 116 nM. The molecule “Pertuzumab Vκ4|VH2 whole IgG1 variant (from UniProt P01857)” showed a Kd in test [2] of 3.33 nM. “Pertuzumab Vκ5|VH3 whole IgG1 variant (from UniProt P01857)” displayed a Kd in test [2] of 15.7 nM.

The molecule “Pertuzumab Vκ6|VH5 whole IgG1 variant (from UniProt P01857)” registered a Kd in test [2] of 83 nM. As for “Pertuzumab Vκ6|VH7 whole IgG1 variant (from UniProt P01857)”, the Kd in test [2] was 72.7 nM. “Trastuzumab Vκ2|VH6 whole IgG1 variant (from UniProt P01857)” returned a Kd in test [2] of 14.7 nM. In test [2], “Trastuzumab Vκ3|VH1 whole IgG1 variant (from UniProt P01857)” gave a Kd of 9.3 nM. Same read-out and setting: with “Trastuzumab Vκ6|VH1 whole IgG1 variant (from UniProt P01857)” the figure was 47.9 nM; with “Trastuzumab Vκ6|VH4 whole IgG1 variant (from UniProt P01857)”, 30 nM; with “Trastuzumab Vκ6|VH5 whole IgG1 variant (from UniProt P01857)”, 12.5 nM. In test [2], “Trastuzumab Vκ6|VH6 whole IgG1 variant (from UniProt P01857)” gave a dissociation constant (Kd) of 39.7 nM.

B1: Pertuzumab Vκ1|VH3 whole IgG1 (original pairing) (antibody, V domains shown)
VH: EVQLVESGGGLVQPGGSLRLSCAASGFTFTDYTMDWVRQAPGKGLEWVADVNPNSGGSIYNQRFKGRFTLSVDRSKNTLYLQMNSLRAEDTAVYYCARNLGPSFYFDYWGQGTLVTVSS
VL: DIQMTQSPSSLSASVGDRVTITCKASQDVSIGVAWYQQKPGKAPKLLIYSASYRYTGVPSRFSGSGSGTDFTLTISSLQPEDFATYYCQQYYIYPYTFGQGTKVEIK
In turn, B1 displayed a koff in test [3] of 0.00154 s⁻¹. In test [4], this molecule had a Kd of 9.31 nM.
